The record followed here is publication PMC10384999.

For this series, the target named is T1, ArcR (Staphylococcus aureus NCTC8325 (?)) (UniProt Q2FUY1).
T1 sequence: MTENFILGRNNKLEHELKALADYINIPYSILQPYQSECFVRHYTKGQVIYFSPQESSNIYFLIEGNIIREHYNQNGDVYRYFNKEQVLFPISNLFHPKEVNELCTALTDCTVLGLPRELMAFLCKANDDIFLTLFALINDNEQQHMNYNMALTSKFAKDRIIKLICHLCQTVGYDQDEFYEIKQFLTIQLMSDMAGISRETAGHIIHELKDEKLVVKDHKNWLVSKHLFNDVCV
Put plainly: EMSA. The note with it: 25 mM HEPES, 300 mM NaCl, 1 mM DTT, 10% glycerol, pH 7.8; 30 min at room temperature ([…]) or 37 °C ([…]. In general terms: Mobility shift assays separate free from complexed probe on a gel.
As to “AGCGCGTGTTGTTATGTCGCGAATGGTAATCTTTTCTAAATCTTTTTCTTGTAGTAATTTAGTGAACGCTTGTTTAATGGAGGACTTTGTCTTTCTAATTCGCCTATCTTCTTTCAAAAATAAATCAACCTCCTTGTGTTATTGAACAATGTGGGTGTATTTGTCTATTAATGAACGTATTGATGAACATTGTGTATTGTTTATTCCCACTTACATATTATAATAGACAACATGCGAAATATTCAACACATTGTCTAATAAGGAGGT (double strand) [tetA promoter fragment]”, the binding entry was “no binding”.

“ACCTACCTTTCGTTAGTTAGGTTGTAAGCCATATGGTAATTGATAGTATTTTAATTTGCAATAGATTGTTGTTATAATTAAACGGAAATATTTGTAATTGCAACTTAATTTTCCTGTAACATAGTGTGATTAATTTTCAGTAGGGGGTTATAAAAATTGAAGGATAAGATTATTGATAACGCAATAACCTTATTTTCAGAGAAGGGGTATGACGGTACAACACTTGATGATATAGCT (double strand) [ica promoter (icaA) fragment]”: the binding result was “binds”. As for “TCAACTTTGACTAACCCTCGAAATTGAAATGCTTCCTTTCAAATTTTAAATAAAAGTTAAAAACATATTCTTAAAATAATCACTCATCATCACTCAGTAATTTATCAGTTGCTACATTAAATATACTAATATAAACGATTATAAATATTTGATATGTCTCAACTGCAATATTCTAAATTGACATATTGATTATTGTTTCCTCAAATCGTTTTAAAAAATAGAAGGATGATGAAAATGAAAACACGTATAGTCAGCTCAGTAACAACAACACTATTGCTAGGTT (double strand) [hla promoter fragment]”, the binding entry is recorded as “binds”.
